± gives the standard deviation of the averaged measurements.
Test system: ATP
Test: switch fluorescence ratio, 500 uM ATP over buffer (Cy3 cluster intensity, sum of 5 cycles each) (fold (ratio)); higher = stronger signal-on switching upon ATP binding; sequences stand for … in TCGTCGGCAGCGTCAGATGTGTATAAGAGACAGTTTTTTTTTTTTTTTTTTTTTTTTT…TC
Details: aptamer strand: ATP DNA aptamer (quencher-CACCTGGGGGAGTATTGCGGAGGAAGG + anchor), 100 nM annealed; ATP concentration: 500 uM
Method in brief: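 Exposure to 500 uM ATP lasted 15 min at 22 °C before imaging, and a selection-buffer image was taken beforehand, for Cy3-labelled switching-strand clusters on a modified Illumina MiSeq flow-cell annealed to 100 nM quencher-labelled ATP aptamer. Five buffer/ATP cycles were run with NaOH stripping and re-annealing between them. The fluorescence ratio per cluster is summed target-cycle over summed buffer-cycle Cy3 intensity, averaged per switch-domain sequence. Clusters outside 100-1000 RFU were excluded.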

Sequence | switch fluorescence ratio
CGTCGGGGAT | 1 ± 0.037
CGTCGGGGCG | 1.02 ± 0.036
CGTCTAAAC | 1.13 ± 0.021
CGTCTAACGC | 1.02 ± 0.029
CGTCTAAGCG | 1 ± 0.086
CGTCTAGAGA | 1.02 ± 0.073
CGTCTGGCTG | 1 ± 0.057
CGTCTGGGGA | 0.996 ± 0.048
CGTCTGTCTC | 1.045 ± 0.005
CGTCTTATTA | 0.9826 ± 0.0028
CGTCTTGGTG | 0.999 ± 0.03
CGTGAACTCT | 0.999 ± 0.016
CGTGAAGGGA | 1.01 ± 0.026
CGTGAATAGT | 1.03 ± 0.041
CGTGAATCTG | 0.9669 ± 0.006
CGTGACGAGC | 1.12 ± 0.062
CGTGATCCCC | 1.17 ± 0.057
CGTGATGGAG | 1.011 ± 0.009
CGTGATGGTA | 0.969 ± 0.0098
CGTGATGGTT | 0.983 ± 0.014
CGTGATTCAC | 1.007 ± 0.0075
CGTGATTTA | 0.961 ± 0.017
CGTGCAGGGT | 1.03 ± 0.052
CGTGCAGTTC | 1.15 ± 0.036
CGTGCATATC | 2.51 ± 0.17

Sequence | switch fluorescence ratio
CGTGCCGATC | 1.01 ± 0.013
CGTGCGGGGT | 0.991 ± 0.028
CGTGCGGTAT | 0.987 ± 0.039
CGTGCGGTGG | 1.01 ± 0.043
CGTGCTATTC | 1.235 ± 0.012
CGTGCTGTTA | 0.98019 ± 0.0002
CGTGGCATTT | 1.03 ± 0.07
CGTGGCGCCG | 0.957 ± 0.054
CGTGGCGGGA | 0.923 ± 0.09
CGTGGGACAG | 0.976 ± 0.011
CGTGGGACTC | 1.1401 ± 0.00046
CGTGGGCGCC | 0.972 ± 0.026
CGTGGGGATG | 1.001 ± 0.0031
CGTGGGGTTC | 0.983 ± 0.021
CGTGGGTTGT | 0.9956 ± 0.0018
CGTGGTCAAC | 0.968 ± 0.047
CGTGGTGGAG | 1 ± 0.045
CGTGGTGGCT | 0.989 ± 0.12
CGTGGTTTGT | 0.9874 ± 0.0051
CGTGTAAGGC | 0.993 ± 0.025
CGTGTAAGTA | 1.011 ± 0.0044
CGTGTAGGGA | 1.06 ± 0.029
CGTGTCGTGC | 0.971 ± 0.062
CGTGTCTTAA | 0.974 ± 0.021
CGTGTGGCCA | 1 ± 0.016

Sequence | switch fluorescence ratio
CGTGTGTATG | 0.997 ± 0.0085
CGTGTTTTAC | 1.018 ± 0.007
CGTTAAGCTT | 1.03 ± 0.014
CGTTACGTAG | 1.05 ± 0.018
CGTTACTAAC | 1.12 ± 0.02
CGTTAGGGGG | 1.02 ± 0.041
CGTTAGGTAT | 0.969 ± 0.033
CGTTAGTCGT | 0.981 ± 0.039
CGTTATACGG | 1.043 ± 0.0037
CGTTATATTT | 1.07 ± 0.14
CGTTATGTTC | 0.9772 ± 0.0031
CGTTATTCGG | 0.965 ± 0.032
CGTTATTTCT | 1.01 ± 0.052
CGTTCAAGTA | 0.973 ± 0.056
CGTTCAGGGG | 1.16 ± 0.024
CGTTCAGTGG | 1.031 ± 0.0083
CGTTCATGCG | 0.99 ± 0.032
CGTTCATTTG | 0.993 ± 0.028
CGTTCCAGCC | 1.04 ± 0.041
CGTTCCATTG | 1 ± 0.012
CGTTCCGGGT | 1.02 ± 0.036
CGTTCCTCGG | 1.77 ± 0.057
CGTTCGATGC | 1.21 ± 0.042
CGTTCGCTTA | 1.96 ± 0.037
CGTTCGGCTG | 1.04 ± 0.039

Sequence | switch fluorescence ratio
CGTTCGGGGG | 1.01 ± 0.083
CGTTCGGGGT | 0.981 ± 0.012
CGTTCTATCT | 1 ± 0.079
CGTTCTCTGT | 0.987 ± 0.029
CGTTCTGAGT | 0.955 ± 0.016
CGTTCTTGTT | 0.976 ± 0.032
CGTTGAATAT | 1.01 ± 0.016
CGTTGACCTT | 1.07 ± 0.029
CGTTGAGGTG | 1.02 ± 0.02
CGTTGCAAAG | 1.03 ± 0.022
CGTTGCGGGA | 1.01 ± 0.045
CGTTGCTCGG | 1 ± 0.0083
CGTTGCTTAG | 0.988 ± 0.024
CGTTGGACGG | 1.03 ± 0.026
CGTTGGGAGC | 1 ± 0.019
CGTTGGGAGT | 0.988 ± 0.037
CGTTGGGCAG | 0.953 ± 0.099
CGTTGGGGG | 0.963 ± 0.029
CGTTGGTGAG | 0.9373 ± 0.0065
CGTTGTTGGA | 1 ± 0.025
CGTTTAACAT | 1.01 ± 0.014
CGTTTAAGCG | 1.01 ± 0.038
CGTTTAAGGG | 0.9819 ± 0.0074
CGTTTAATCA | 0.982 ± 0.018
CGTTTACAAG | 0.985 ± 0.033

Sequence | switch fluorescence ratio
CGTTTACCTT | 1.0086 ± 0.001
CGTTTAGATA | 1 ± 0.042
CGTTTAGTTG | 1.002 ± 0.009
CGTTTATTTT | 1.01 ± 0.03
CGTTTGACTT | 0.9947 ± 0.0066
CGTTTGAGGA | 1.01 ± 0.03
CGTTTGAGTT | 0.984 ± 0.026
CGTTTGCAGT | 1.02 ± 0.017
CGTTTGCGAT | 0.989 ± 0.05
CGTTTGGCGT | 1.12 ± 0.2
CGTTTGGGGA | 0.99 ± 0.015
CGTTTGGGTA | 0.999 ± 0.041
CGTTTGTTTG | 0.988 ± 0.021
CGTTTTCGGG | 1.02 ± 0.016
CGTTTTGGGA | 0.98 ± 0.013
CGTTTTGTGC | 1.03 ± 0.042
CGTTTTTAAT | 1.01 ± 0.021
CGTTTTTGAA | 0.99 ± 0.025
CGTTTTTGCT | 0.961 ± 0.05
CGTTTTTTAG | 0.99 ± 0.022
CGTTTTTTAT | 1.02 ± 0.031
CTAAAACAGG | 1.02 ± 0.03
CTAAAACTTG | 1.14 ± 0.13
CTAAAATTGA | 0.985 ± 0.038
CTAAACCGGT | 0.989 ± 0.015

Sequence | switch fluorescence ratio
CTAAAGATCG | 1.03 ± 0.049
CTAAATATGA | 0.98 ± 0.035
CTAACATGTG | 0.998 ± 0.03
CTAACTCGC | 1.04 ± 0.011
CTAACTGAG | 1.03 ± 0.017
CTAAGCCAAT | 1.21 ± 0.023
CTAAGCCGTT | 0.971 ± 0.011
CTAAGGCATG | 1.05 ± 0.0013
CTAAGGCGTT | 0.999 ± 0.013
CTAAGGGATT | 1.01 ± 0.058
CTAATACTTG | 0.9791 ± 0.0024
CTAATAGGAG | 1.004 ± 0.0025
CTAATATGGG | 1.04 ± 0.021
CTAATCAAAT | 0.973 ± 0.019
CTAATCATCT | 1.01 ± 0.039
CTAATGTGCG | 1.15 ± 0.28
CTAATTGTGT | 0.9933 ± 0.0034
CTACCAGGGA | 1.149 ± 0.0019
CTACGAGCTG | 1.06 ± 0.021
CTACGGGGCG | 1.01 ± 0.061
CTAGAAGTAT | 1.024 ± 0.0033
CTAGAATGAT | 1.014 ± 0.0072
CTAGAGGGGG | 0.9711 ± 0.0094
CTAGATGCTT | 1.012 ± 0.0096
CTAGATGGGT | 1.01 ± 0.046

Sequence | switch fluorescence ratio
CTAGCTTACT | 1.36 ± 0.065
CTAGGAGCTT | 1 ± 0.044
CTAGGGGATG | 1.03 ± 0.062
CTAGGGTGGA | 1.05 ± 0.023
CTAGGGTTGT | 1.02 ± 0.045
CTAGGTAGGG | 0.997 ± 0.035
CTAGTACGGG | 1.04 ± 0.031
CTAGTCACGT | 1.003 ± 0.0031
CTAGTCGCGC | 1 ± 0.026
CTAGTTGGTA | 0.994 ± 0.027
CTATAACAAT | 1.02 ± 0.021
CTATACGGTA | 1.128 ± 0.0097
CTATCTTCGG | 0.974 ± 0.038
CTATGCTAGT | 1.01 ± 0.016
CTATGGAAGG | 0.98 ± 0.013
CTATGGGATG | 0.992 ± 0.039
CTATGGGGTG | 1.04 ± 0.04
CTATGTAAAT | 1.01 ± 0.031
CTATGTGGGT | 1.02 ± 0.048
CTATGTGTCA | 0.977 ± 0.05
CTATGTGTCT | 0.97 ± 0.043
CTATGTTATT | 1.01 ± 0.038
CTATGTTCGC | 0.954 ± 0.023
CTATTATAGT | 0.9844 ± 0.0034
CTATTATTCT | 0.983 ± 0.018

Sequence | switch fluorescence ratio
CTATTCCGAG | 1.16 ± 0.066
CTATTTACGA | 1.05 ± 0.015
CTATTTAGGG | 0.996 ± 0.024
CTATTTCTAC | 1.03 ± 0.046
CTATTTTAAG | 1.02 ± 0.051
CTCAAAAGA | 1.11 ± 0.077
CTCAAAAGTA | 1.09 ± 0.11
CTCAACGATT | 1.03 ± 0.048
CTCAAGACGG | 1.06 ± 0.012
CTCAAGGTGA | 1.45 ± 0.11
CTCAATAGCA | 1.036 ± 0.0037
CTCAATCGAA | 1.03 ± 0.026
CTCAATCGGG | 1.04 ± 0.021
CTCAATTCTG | 0.969 ± 0.031
CTCAGACAGC | 1.107 ± 0.0056
CTCAGAGAAG | 1.02 ± 0.058
CTCAGGGCCG | 1.05 ± 0.11
CTCAGGGGGG | 1.02 ± 0.04
CTCAGGTGGC | 1.04 ± 0.053
CTCATATAGC | 0.999 ± 0.019
CTCATCGGCT | 1.03 ± 0.03
CTCATCTAAT | 0.9821 ± 0.0081
CTCCATATGT | 1.039 ± 0.0016
CTCCGGTTTG | 2.03 ± 1.4
CTCCGTGGGG | 1.47 ± 0.042
